Test [1] addresses T1, Recombinant human CD28 (bio-techne, reference 342-CD-200) (human, UniProt P10747 19-152).
T1 construct: Bought protein; also called hCD28 recombinant protein; human recombinant CD28 protein
In words: SPR (Biacore T200), hCD28 immobilized on CM5, antibody flowed at 0-3000 nM, bivalent model fit. The method, then: (§1) hCD28 recombinant protein (bio-techne, reference 342-CD-200) was immobilized to the CM5 sensorship at 20 ug/mL in Na Acetate pH5 in the Biacore T200. […] The antigen-antibody association kinetics was followed for 2 minutes, and the dissociation kinetics was followed for 10 minutes. The association and dissociation curves were fit to a bivalent model.
A general note: In SPR one partner is held on a chip, and binding of the other changes the refractive index at the surface.

The target in test [2] is Human CD28 expressed on Jurkat T cells (human, UniProt P10747 19-220). As to the kind of experiment: cell-based or functional assay.
Test [3] has as its target T2, Biotinylated human PD-1 (AcroBiosystems, reference EP-101) (human, UniProt Q15116 25-167, biotinylated).
T2 construct: Kit reagent; called both biotinylated Human PD1 and Biotin-PD-1Fc; also called Biotin-PD-1Fc; not described
As to the kind of experiment: competitive ELISA: recombinant human PD-L1 immobilized, antibody mixed with a fixed concentration of biotinylated human PD-1, streptavidin-peroxidase; blocked ligand PD-L1. The method, then:
(A) PD-1 binding ELISA assay. […] Revelation was performed using an anti-human Fc antibody coupled to peroxidase. Colorimetry was determined at 450 nm using TMB substrate. Data were normalized by the condition anti-PD-1*2 or anti-PD-1*1 at 20 nM; considered as 100% of binding for bivalent and monovalent figure respectively. N=2 independent experiments per condition. (B) Antagonist PD-1/PDL1 ELISA assay. […] Revelation was performed with a streptavidin coupled to peroxidase. Colorimetry was determined at 450 nm using TMB substrate. Percentage of antagonist activity was determined by the formula 100-((DO450 nM*100)/DO450 nM No Ab). N=2 independent experiments. (C) CD28 binding MSD assay. […] Revelation was performed with an anti-human Fc antibody coupled to SulfoTag. Electric signal was determined using MSD system. (D) Cis-activity Jurkat T cell-based bioassay. […] IL-2 secretion was quantified in the culture supernatant after 48 hours of stimulation and data were normalized by the condition without antibody. N=2-7 independent experiments.
A general note: An ELISA detects its analyte on a solid surface through an enzyme-linked reagent.

The target of test [4] is T1, Recombinant human CD28 (bio-techne, …). As to the kind of experiment: SPR (Biacore T200), hCD28 immobilized on CM5, antibody flowed; monovalent anti-CD28 scFv (Format B1), not the bivalent anti-CD28 antibody. As for the experimental part: as §1

T2 sequence (Q15116 25-167): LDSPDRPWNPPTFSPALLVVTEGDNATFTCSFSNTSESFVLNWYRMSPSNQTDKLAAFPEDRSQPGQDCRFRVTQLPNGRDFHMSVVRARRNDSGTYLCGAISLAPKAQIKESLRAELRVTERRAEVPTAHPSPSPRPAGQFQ

B1: anti-CD28 bivalent clone 1 antibody with no anti-PD-1 valency (antibody, V domains shown)
VH: QVKLQESGPGLVAPSQSLSITCTVSGFSLTSYGVYWVRQPPGKGLEWLGVIWAGGSTNYNSALMSRLSISKDNSKSQVFLKMNSLQTDDTAMYYCARDHYGSYGDYYAMDYWGQGTTVTVSS
VL: DIVLTQSPASLAVSLGQRATISCRASESVEYYDTSLMQWYQQKPGQPPKLLIYAASSVESGVPARFSGSGSGTDFSLNIHPVEEDDIAMYFCQQSRKVPWTFGGGTKLEIK
notes: also called bivalent anti-CD28 antibody; Bivalent anti-CD28 (positive control)
A word on the koff: it is the rate constant with which the complex falls apart. Broadly, the kon is the rate constant with which the complex forms. Consider B1, for which, in test [1], the Kd is 75 nM, the koff was found to be 0.000842 s⁻¹ and the kon is 11200 M⁻¹ s⁻¹.

B2: Format B1 anti-PD-1*1/anti-CD28*1 scFv clone 2 (bispecific antibody)
chain 1: not shown
chain 2: PAPELLGGPSVFLFPPKPKDTLMISRTPEVTCVVVDVSHEDPEVKFNWYVDGVEVHNAKTKPREEQYASTYRVVSVLTVLHQDWLNGKEYKCKVSNKALPAPIEKTISKAKGQPREPQVYTLPPCRDELTKNQVSLWCLVKGFYPSDIAVEWESNGQPENNYKTTPPVLDSDGSFFLYSKLTVDKSRWQQGNVFSCSVMHEALHNHYTQKSLSLSPGK
VL: DVVMTQSPLSLPVTLGQPASISCRSSQSLVHANTNTYLEWYQQRPGQSPRLLIYKVSNRFSGVPDRFSGSGSGTDFTLKISRVEAEDVGVYYCFQGTHVPNTFGQGTKLEIK
B2: the “IL-2 secretion by PD-1 negative Jurkat T cells (cis-activity bioassay, 100 nM), fold versus no antibody” value in test [2] turned out to be 4 fold.

B3: anti-PD-1/anti-CD28 multifunctional molecule Format C1 (bivalent anti-PD-1 antibody fused to an anti-CD28 scFv, clone 1) (bispecific antibody, V domains shown)
VH 1: QIQLVQSGSELKKPGASVKVSCKASGYTFTHYAMNWVRQAPGQGLEWMGWINTNTGEPTYAQGFTGRFVFSLDTSVSTAYLQISSLKAEDTAVYYCAREREPGMDNWGQGTLVTVSS
VL 1: DVVMTQSPLSLPVTLGQPASISCRSSQSLVHANTNTYLEWYQQRPGQSPRLLIYKVSNRFSGVPDRFSGSGSGTDFTLKISRVEAEDVGVYYCFQGTHVPNTFGQGTKLEIK
VH 2: QVKLQESGPGLVAPSQSLSITCTVSGFSLTSYGVYWVRQPPGKGLEWLGVIWAGGSTNYNSALMSRLSISKDNSKSQVFLKMNSLQTDDTAMYYCARDHYGSYGDYYAMDYWGQGTTVTVSS
VL 2: DIVLTQSPASLAVSLGQRATISCRASESVEYYDTSLMQWYQQKPGQPPKLLIYAASSVESGVPARFSGSGSGTDFSLNIHPVEEDDIAMYFCQQSRKVPWTFGGGTKLEIK
notes: Full chains not tied to the label in the text
Regarding B3, the “IC50 (read off the curve)” value in test [3] was about 1 nM.

B4: anti-PD-1/anti-CD28 multifunctional molecule Format C5 (scFv anti-CD28 fused to C-terminal of bivalent anti-PD1, clone 1) (bispecific antibody, V domains shown)
VH 1: QIQLVQSGSELKKPGASVKVSCKASGYTFTHYAMNWVRQAPGQGLEWMGWINTNTGEPTYAQGFTGRFVFSLDTSVSTAYLQISSLKAEDTAVYYCAREREPGMDNWGQGTLVTVSS
VL 1: DVVMTQSPLSLPVTLGQPASISCRSSQSLVHANTNTYLEWYQQRPGQSPRLLIYKVSNRFSGVPDRFSGSGSGTDFTLKISRVEAEDVGVYYCFQGTHVPNTFGQGTKLEIK
VH 2: QVKLQESGPGLVAPSQSLSITCTVSGFSLTSYGVYWVRQPPGKGLEWLGVIWAGGSTNYNSALMSRLSISKDNSKSQVFLKMNSLQTDDTAMYYCARDHYGSYGDYYAMDYWGQGTTVTVSS
VL 2: DIVLTQSPASLAVSLGQRATISCRASESVEYYDTSLMQWYQQKPGQPPKLLIYAASSVESGVPARFSGSGSGTDFSLNIHPVEEDDIAMYFCQQSRKVPWTFGGGTKLEIK
B4: the “IC50 (read off the curve)” value in test [3] was about 0.3 nM.

B5: Format B1 anti-PD-1*1/anti-CD28*1 scFv clone 3 (bispecific antibody)
chain 1: not shown
chain 2: PAPELLGGPSVFLFPPKPKDTLMISRTPEVTCVVVDVSHEDPEVKFNWYVDGVEVHNAKTKPREEQYASTYRVVSVLTVLHQDWLNGKEYKCKVSNKALPAPIEKTISKAKGQPREPQVYTLPPCRDELTKNQVSLWCLVKGFYPSDIAVEWESNGQPENNYKTTPPVLDSDGSFFLYSKLTVDKSRWQQGNVFSCSVMHEALHNHYTQKSLSLSPGK
VL: DVVMTQSPLSLPVTLGQPASISCRSSQSLVHANTNTYLEWYQQRPGQSPRLLIYKVSNRFSGVPDRFSGSGSGTDFTLKISRVEAEDVGVYYCFQGTHVPNTFGQGTKLEIK
Regarding B5, the “IL-2 secretion by PD-1 negative Jurkat T cells (cis-activity bioassay, 100 nM), fold versus no antibody” value in test [2] came to 2 fold.

B6: anti-PD-1/anti-CD28 multifunctional molecule Format C2 (bivalent anti-PD-1 antibody fused to an anti-CD28 scFv, clone 1) (bispecific antibody, V domains shown)
VH 1: QIQLVQSGSELKKPGASVKVSCKASGYTFTHYAMNWVRQAPGQGLEWMGWINTNTGEPTYAQGFTGRFVFSLDTSVSTAYLQISSLKAEDTAVYYCAREREPGMDNWGQGTLVTVSS
VL 1: DVVMTQSPLSLPVTLGQPASISCRSSQSLVHANTNTYLEWYQQRPGQSPRLLIYKVSNRFSGVPDRFSGSGSGTDFTLKISRVEAEDVGVYYCFQGTHVPNTFGQGTKLEIK
VH 2: QVKLQESGPGLVAPSQSLSITCTVSGFSLTSYGVYWVRQPPGKGLEWLGVIWAGGSTNYNSALMSRLSISKDNSKSQVFLKMNSLQTDDTAMYYCARDHYGSYGDYYAMDYWGQGTTVTVSS
VL 2: DIVLTQSPASLAVSLGQRATISCRASESVEYYDTSLMQWYQQKPGQPPKLLIYAASSVESGVPARFSGSGSGTDFSLNIHPVEEDDIAMYFCQQSRKVPWTFGGGTKLEIK
notes: See Format C1; full chains not tied to the label in the text
For B6, the “IC50 (read off the curve)” value in test [3] was about 2 nM.

B7: anti-PD-1/anti-CD28 multifunctional molecule Format B3 (scFv anti-CD28 fused to C-terminal of monovalent anti-PD1, clone 1) (bispecific antibody, V domains shown)
VH 1: QIQLVQSGSELKKPGASVKVSCKASGYTFTHYAMNWVRQAPGQGLEWMGWINTNTGEPTYAQGFTGRFVFSLDTSVSTAYLQISSLKAEDTAVYYCAREREPGMDNWGQGTLVTVSS
VL 1: DVVMTQSPLSLPVTLGQPASISCRSSQSLVHANTNTYLEWYQQRPGQSPRLLIYKVSNRFSGVPDRFSGSGSGTDFTLKISRVEAEDVGVYYCFQGTHVPNTFGQGTKLEIK
VH 2: QVKLQESGPGLVAPSQSLSITCTVSGFSLTSYGVYWVRQPPGKGLEWLGVIWAGGSTNYNSALMSRLSISKDNSKSQVFLKMNSLQTDDTAMYYCARDHYGSYGDYYAMDYWGQGTTVTVSS
VL 2: DIVLTQSPASLAVSLGQRATISCRASESVEYYDTSLMQWYQQKPGQPPKLLIYAASSVESGVPARFSGSGSGTDFSLNIHPVEEDDIAMYFCQQSRKVPWTFGGGTKLEIK
For the molecule B7, the “IC50 (read off the curve)” value in test [3] is about 1 nM.

B8: Anti PD-1*1/anti CD28*1 scFv Format B1 (anti-PD-1 clone 1 / anti-CD28 clone 1) (bispecific antibody, V domains shown)
VH 1: QIQLVQSGSELKKPGASVKVSCKASGYTFTHYAMNWVRQAPGQGLEWMGWINTNTGEPTYAQGFTGRFVFSLDTSVSTAYLQISSLKAEDTAVYYCAREREPGMDNWGQGTLVTVSS
VL 1: DVVMTQSPLSLPVTLGQPASISCRSSQSLVHANTNTYLEWYQQRPGQSPRLLIYKVSNRFSGVPDRFSGSGSGTDFTLKISRVEAEDVGVYYCFQGTHVPNTFGQGTKLEIK
VH 2: QVKLQESGPGLVAPSQSLSITCTVSGFSLTSYGVYWVRQPPGKGLEWLGVIWAGGSTNYNSALMSRLSISKDNSKSQVFLKMNSLQTDDTAMYYCARDHYGSYGDYYAMDYWGQGTTVTVSS
VL 2: DIVLTQSPASLAVSLGQRATISCRASESVEYYDTSLMQWYQQKPGQPPKLLIYAASSVESGVPARFSGSGSGTDFSLNIHPVEEDDIAMYFCQQSRKVPWTFGGGTKLEIK
notes: Only the variable domains are tied to the molecule by name; also called anti PD-1/anti CD28 (Format B1); anti-PD-1*1/anti-CD28*1 scFv clone 1
For B8, in test [1], the Kd is 5400 nM, the koff came out at 0.0249 s⁻¹ and the kon turned out to be 4620 M⁻¹ s⁻¹. In addition, the “IC50 (read off the curve)” value in test [3] was about 1 nM. Moreover, the Kd in test [4] was about 5000 nM.

(Values after patent US20260049141A1 (OSE IMMUNOTHERAPEUTICS, published 2026).)
